The target in the assay is human constitutively active c-Src, adenovirus-expressed (human) (UniProt P12931). Briefly: co-IP.

B1: phospho-mimetic S116D eNOS mutant, adenovirus-expressed (enzyme)
chain: MGNLKSVGQEPGPPCGLGLGLGLGLCGKQGPASPAPEPSRAPAPATPHAPDHSPAPNSPTLTRPPEGPKFPRVKNWELGSITYDTLCAQSQQDGPCTPRCCLGSLVLPRKLQTRPDPGPPPAEQLLSQARDFINQYYSSIKRSGSQAHEERLQEVEAEVASTGTYHLRESELVFGAKQAWRNAPRCVGRIQWGKLQVFDARDCSSAQEMFTYICNHIKYATNRGNLRSAITVFPQRAPGRGDFRIWNSQLVRYAGYRQQDGSVRGDPANVEITELCIQHGWTPGNGRFDVLPLLLQAPDEAPELFVLPPELVLEVPLEHPTLEWFAALGLRWYALPAVSNMLLEIGGLEFSAAPFSGWYMSTEIGTRNLCDPHRYNILEDVAVCMDLDTRTTSSLWKDKAAVEINLAVLHSFQLAKVTIVDHHAATVSFMKHLDNEQKARGGCPADWAWIVPPISGSLTPVFHQEMVNYILSPAFRYQPDPWKGSATKGAGITRKKTFKEVANAVKISASLMGTLMAKRVKATILYASETGRAQSYAQQLGRLFRKAFDPRVLCMDEYDVVSLEHEALVLVVTSTFGNGDPPENGESFAAALMEMSGPYNSSPRPEQHKSYKIRFNSVSCSDPLVSSWRRKRKESSNTDSAGALGTLRFCVFGLGSRAYPHFCAFARAVDTRLEELGGERLLQLGQGDELCGQEEAFRGWAKAAFQASCETFCVGEEAKAAAQDIFSPKRSWKRQRYRLSTQAEGLQLLPGLIHVHRRKMFQATVLSVENLQSSKSTRATILVRLDTAGQEGLQYQPGDHIGICPPNRPGLVEALLSRVEDPPPPTESVAVEQLEKGSPGGPPPSWVRDPRLPPCTLRQALTFFLDITSPPSPRLLRLLSTLAEEPSEQQELETLSQDPRRYEEWKWFRCPTLLEVLEQFPSVALPAPLLLTQLPLLQPRYYSVSSAPNAHPGEVHLTVAVLAYRTQDGLGPLHYGVCSTWLSQLKTGDPVPCFIRGAPSFRLPPDPYVPCILVGPGTGIAPFRGFWQERLHDIESKGLQPAPMTLVFGCRCSQLDHLYRDEVQDAQERGVFGRVLTAFSREPDSPKTYVQDILRTELAAEVHRVLCLERGHMFVCGDVTMATSVLQTVQRILATEGDMELDEAGDVIGVLRDQQRYHEDIFGLTLRTQEVTSRIRTQSFSLQERHLRGAVPWAFDPPGPDTPGP
B1 showed a percent reduction of co-immunoprecipitation against WT eNOS of 88%.

The record behind these values is publication PMC3824616.
